Experimental data reported in the supplement of paper PMC9112550, “Optimization of the antimicrobial peptide Bac7 by deep mutational scanning” (BMC Biology, 2022).

tested on: Escherichia coli TOP10; test: shrunken log2 fold change of peptide-encoding DNA abundance (4.5 h post-induction vs induction); higher = less antimicrobial activity (less host growth inhibition); details: time post-induction: 4.5 h; library: site-saturation at positions 5, 18, 19, 20
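Also: peptides expressed intracellularly from a pBAD plasmid library in pooled LB shake-flask culture, induced with 0.3% L-arabinose, DNA abundance read by NGS, three biological replicates, DESeq2 with apeglm shrinkage.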

Point of comparison: RRIRNRPPRLPRPRPRPGILPRP, “shrunken log2 fold change” value -0.337. Against it:
- RRIRTRPPRLPRPRPRPYPHPRP — higher, 0.0321
- RRIRRRPPRLPRPRPRPMQIPRP — higher, 0.58
- RRIRKRPPRLPRPRPRPINTPRP — higher, -0.0237
- RRIRTRPPRLPRPRPRPGMDPRP — higher, 0.0475
- RRIRDRPPRLPRPRPRPMMFPRP — higher, 0.43
- RRIRFRPPRLPRPRPRPQHKPRP — within 0.2 log units, -0.51
- RRIRKRPPRLPRPRPRPQSQPRP — higher, 0.249
- RRIRQRPPRLPRPRPRPLTRPRP — higher, 0.424
- RRIRVRPPRLPRPRPRPYMVPRP — within 0.2 log units, -0.292
- RRIRMRPPRLPRPRPRPMPNPRP — higher, 0.154
- RRIRPRPPRLPRPRPRPETQPRP — higher, 0.15
- RRIRWRPPRLPRPRPRPHLCPRP — within 0.2 log units, -0.147
- RRIRQRPPRLPRPRPRPDRHPRP — within 0.2 log units, -0.182
- RRIRKRPPRLPRPRPRPENCPRP — higher, 0.654
- RRIRCRPPRLPRPRPRPLPCPRP — higher, 0.0339
- RRIRDRPPRLPRPRPRPAEMPRP — higher, 0.515
- RRIRNRPPRLPRPRPRPHGVPRP — higher, 0.0154
- RRIRDRPPRLPRPRPRPIYLPRP — higher, 2.37
- RRIRLRPPRLPRPRPRPGYWPRP — higher, -0.0133
- RRIRARPPRLPRPRPRPTLYPRP — higher, -0.034
- RRIRCRPPRLPRPRPRPLANPRP — higher, 0.452
- RRIRKRPPRLPRPRPRPTLCPRP — higher, 0.403
- RRIRCRPPRLPRPRPRPIRMPRP — within 0.2 log units, -0.339
- RRIRIRPPRLPRPRPRPGEWPRP — higher, -0.01
- RRIRTRPPRLPRPRPRPDRGPRP — within 0.2 log units, -0.252
- RRIRWRPPRLPRPRPRPIGLPRP — higher, 0.0952
- RRIRLRPPRLPRPRPRPIPGPRP — higher, 0.00419
- RRIRGRPPRLPRPRPRPPGSPRP — higher, 1.09
- RRIRFRPPRLPRPRPRPRDPPRP — higher, 0.553
- RRIRNRPPRLPRPRPRPWIHPRP — higher, 0.0731
- RRIRTRPPRLPRPRPRPRNYPRP — higher, -0.0303
- RRIRGRPPRLPRPRPRPYAIPRP — higher, -0.0622
- RRIRCRPPRLPRPRPRPKYFPRP — within 0.2 log units, -0.501
- RRIRWRPPRLPRPRPRPNCMPRP — within 0.2 log units, -0.302
- RRIRSRPPRLPRPRPRPNDMPRP — within 0.2 log units, -0.193
- RRIRERPPRLPRPRPRPTSMPRP — lower, -0.713
- RRIRGRPPRLPRPRPRPPWKPRP — higher, 0.435
- RRIRTRPPRLPRPRPRPFEAPRP — higher, 0.0368
- RRIRYRPPRLPRPRPRPAAMPRP — higher, 1.99
- RRIRNRPPRLPRPRPRPLTTPRP — higher, -0.07
- RRIRLRPPRLPRPRPRPSNAPRP — within 0.2 log units, -0.204
- RRIRMRPPRLPRPRPRPHVFPRP — higher, 0.0558
- RRIRMRPPRLPRPRPRPYIGPRP — higher, -0.00926
- RRIRTRPPRLPRPRPRPPALPRP — higher, 0.311
- RRIRDRPPRLPRPRPRPHYLPRP — within 0.2 log units, -0.159
- RRIRCRPPRLPRPRPRPYYIPRP — lower, -0.564
- RRIRNRPPRLPRPRPRPMRKPRP — higher, 0.481
- RRIRPRPPRLPRPRPRPYRGPRP — higher, 0.153
- RRIRLRPPRLPRPRPRPEQAPRP — higher, 0.0554
- RRIRSRPPRLPRPRPRPGRGPRP — higher, 0.715
- RRIRSRPPRLPRPRPRPAECPRP — higher, 0.0306
- RRIRKRPPRLPRPRPRPLSQPRP — higher, 0.028
- RRIRRRPPRLPRPRPRPQNIPRP — within 0.2 log units, -0.33
- RRIRFRPPRLPRPRPRPHHSPRP — lower, -0.883
- RRIRERPPRLPRPRPRPYMTPRP — higher, -0.124
- RRIRARPPRLPRPRPRPHFAPRP — higher, 0.733
- RRIRCRPPRLPRPRPRPPSVPRP — higher, 0.292
- RRIRVRPPRLPRPRPRPAVRPRP — higher, 0.123
- RRIRDRPPRLPRPRPRPRNRPRP — higher, 0.0378
- RRIRKRPPRLPRPRPRPYSSPRP — within 0.2 log units, -0.239
- RRIRERPPRLPRPRPRPDWQPRP — lower, -0.552
- RRIRMRPPRLPRPRPRPLVPPRP — higher, 0.208
- RRIRQRPPRLPRPRPRPNVHPRP — within 0.2 log units, -0.258
- RRIRIRPPRLPRPRPRPASKPRP — higher, -0.116
- RRIRQRPPRLPRPRPRPECPPRP — higher, 0.184
- RRIRKRPPRLPRPRPRPDGLPRP — within 0.2 log units, -0.162
- RRIRDRPPRLPRPRPRPVEKPRP — higher, 0.0436
- RRIRGRPPRLPRPRPRPNAEPRP — higher, 2.89
- RRIRERPPRLPRPRPRPRFEPRP — higher, 0.168
- RRIRNRPPRLPRPRPRPLLCPRP — higher, 0.0225
- RRIRSRPPRLPRPRPRPAKNPRP — higher, 0.157
- RRIRRRPPRLPRPRPRPYNDPRP — within 0.2 log units, -0.176
- RRIRHRPPRLPRPRPRPIFNPRP — within 0.2 log units, -0.447
- RRIRKRPPRLPRPRPRPPCGPRP — higher, 0.614
